Laboratory results reported in patent US20200109188A1 (AstraZeneca / MedImmune, published 2020).
Where a chain is given by its changes, count along the chain named.

B1: Antibody 10 (antibody, V domains shown)
VH: QVQLQQSGPGLVKPSQTLSLTCAISGDSVSSNSATWNWIRQSPSRGLEWLGRTYYRSKWYNDYADFLKRRITINPDTSNNEVSLRLTSVTPDDTALYYCARGGHITVFGVNIDAFDVWGQGTMVTVSS
VL: DIQMTQSPSSLSASVGDRITISCRTSQSLRSYLHWYQQKPGKAPKLLIYASSTLQSGVPSRFSGSGSGTDFTLTISNLQPEDFATYYCQLSRTFGQGTKVEIK
B2: Antibody 5 (antibody, V domains shown)
VH: QVQLQQSGPGLVKPSQTLSLTCAISGDRVSSNSAVWNWIRQSPSRGLEWLGRTYYRSKWYYDYAESVKSRIVIDPDTSKNQVSLQLNSVTPEDSAIYYCARGGHITVFGLNIDAYDIWGQGAMVTVSS
VL: DIQMTQSPSSLSASVGDRVTISCRAQSLSSYLHWYQQKPGQPPKLLIYAATTLQSGVPSRFSGSGSGTDFTLTISTFQAEDVATYYCQQSRTFGQGTKVEIK
B3: Antibody 6 (antibody, V domains shown)
VH: B2 VH with V107E
VL: B2 VL
B4: Antibody 8 (antibody, V domains shown)
VH: QVQLQQSGPGLVKPSQTLSLTCVISGDTVSSNRATWNWMRQSPLRGLEWLGRTYYRSKWYNDYAVSVKSRVVINPDTSKNQVSLQLNTVTPDDSGVYFCARGGHITVFGVNIDAFDIWGLGTKVTVSS
VL: DIQMTQSPSSLSASVGDRVTISCRASQRLNSYLHWYQQTPGQAPKLLIYATSTLQSGVSPRFSGSGSGTDFTLTISSLQPEDVATYYCQLSRTFGHGTKVEIK

Legend:
Experiment in all cases: cell-based or functional assay
[1] = molecular target: HA of ca A/Panama/2007/99 (H3N2) virus (influenza A virus)
[2] = molecular target: HA of A/Fort Monmouth/1/47 (H1N1) virus (influenza A virus)
[3] = molecular target: HA of ca A/swine/Missouri/06 (H2N3) virus (influenza A virus)
[4] = molecular target: HA of A/Kawasaki/9/86 (H1N1) virus (influenza A virus)
[5] = molecular target: HA of A/Wyoming/03/03 (H3N2) virus (influenza A virus)
[6] = molecular target: HA of ca A/teal/Hong Kong/W312/97 (H6N1) virus (influenza A virus)
[7] = molecular target: HA of ca A/Netherlands/219/03 (H7N7) virus (influenza A virus)
[8] = molecular target: HA of A/Hong Kong/8/68 (H3N2) virus (influenza A virus)
[9] = molecular target: HA of ca A/Hong Kong/213/03 (H5N1) virus (influenza A virus)
[10] = molecular target: HA of A/Victoria/3/75 (H3N2) virus (influenza A virus, UniProt P03435 17-567)
[11] = molecular target: HA of ca A/New Caledonia/20/99 (H1N1) virus (influenza A virus)
[12] = molecular target: HA of ca A/Brit. Columbia/CN-6/04 (H7N3-LP) virus (influenza A virus)
[13] = molecular target: HA of H3-LA87 (A/Los Angeles/7/09 (H3N2)) virus (influenza A virus)
[14] = molecular target: HA of A/Wisconsin/67/05 (H3N2) virus (influenza A virus)
[15] = molecular target: HA of A/New Jersey/8/76 (H1N1) virus (influenza A virus)
[16] = molecular target: HA of ca A/Texas/36/91 (H1N1) virus (influenza A virus)
[17] = molecular target: HA of ca A/Perth/16/09 (H3N2) virus (influenza A virus)
[18] = molecular target: HA of ca A/chicken/Hong Kong/G9/97 (H9N2) virus (influenza A virus)
[19] = molecular target: HA of ca A/Sydney/5/97 (H3N2) virus (influenza A virus)
[20] = molecular target: HA of ca A/Vietnam/1203/04 (H5N1) virus (influenza A virus)
[21] = molecular target: HA of ca A/Beijing/262/95 (H1N1) virus (influenza A virus)

Sequence of HA of A/Victoria/3/75 (H3N2) virus (P03435 17-567 limits assumed): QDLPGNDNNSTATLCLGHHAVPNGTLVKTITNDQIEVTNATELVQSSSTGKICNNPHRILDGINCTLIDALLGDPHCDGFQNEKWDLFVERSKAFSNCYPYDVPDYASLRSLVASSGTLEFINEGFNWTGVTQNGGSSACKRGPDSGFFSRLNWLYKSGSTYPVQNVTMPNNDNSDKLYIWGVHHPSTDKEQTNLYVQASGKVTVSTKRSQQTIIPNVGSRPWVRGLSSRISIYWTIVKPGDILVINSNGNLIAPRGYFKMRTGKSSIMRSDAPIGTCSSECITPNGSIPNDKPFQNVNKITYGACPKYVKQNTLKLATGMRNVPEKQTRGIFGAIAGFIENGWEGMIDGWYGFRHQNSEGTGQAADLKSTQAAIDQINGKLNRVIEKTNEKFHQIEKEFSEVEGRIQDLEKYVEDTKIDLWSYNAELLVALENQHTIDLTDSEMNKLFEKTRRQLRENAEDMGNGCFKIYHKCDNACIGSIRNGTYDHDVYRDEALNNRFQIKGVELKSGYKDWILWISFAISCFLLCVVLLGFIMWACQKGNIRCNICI

Binder	Neutralization IC50, H3-Pa99 [1] [µg/mL]	Neutralization IC50, H1-FM47 [2] [µg/mL]	Neutralization IC50, H2-MO06 [3] [µg/mL]	Neutralization IC50, H1-Kaw86 [4] [µg/mL]	Neutralization IC50, H3-Wy03 [5] [µg/mL]	Neutralization IC50, H6-HK97 [6] [µg/mL]	Neutralization IC50, H7-NLD03 [7] [µg/mL]	Neutralization IC50, H3-HK68 [8] [µg/mL]	Neutralization IC50, H5-HK03 [9] [µg/mL]	Neutralization IC50, H3-Vic75 [10] [µg/mL]	Neutralization IC50, H1-Ncal99 [11] [µg/mL]	Neutralization IC50, H7-BC04 [12] [µg/mL]	Neutralization IC50, H3-LA87 [13] [µg/mL]	Neutralization IC50, H3-Wl05 [14] [µg/mL]	Neutralization IC50, H1-NJ76 [15] [µg/mL]	Neutralization IC50, H1-TX91 [16] [µg/mL]	Neutralization IC50, H3-Perth09 [17] [µg/mL]	Neutralization IC50, H9-HK97 [18] [µg/mL]	Neutralization IC50, H3-Syd97 [19] [µg/mL]	Neutralization IC50, H5-VM04 [20] [µg/mL]	other results
B1	18.7	1.11	1.04	1.62	1.52	1.05	3.8	0.85	1.6	0.91	1.26	3.59	4.59	4.46	0.15	0.48	2.56	1.76	9.29	2.21	Neutralization IC50, H1-BJ95 [21]: 4.46 µg/mL
B2	16.7	0.86	2.38	1.01	0.77	2.27	4.14	0.39	1.18	0.57	0.85	5.35	3.54	2.83	1.64	0.76	2.22	2.43	3.03	2.6	Neutralization IC50, H1-BJ95 [21]: 5.06 µg/mL
B3	25.8	3.04	2.9	3.51	4.7	3.23	> 50	2.04	10.4	1.09	3	> 50	12.6	6.76	2.6	2.2	5.03	16.5	6.54	8.87	Neutralization IC50, H1-BJ95 [21]: 20.9 µg/mL
B4	> 50	1.37	2.62	2.11	> 50	2.97	12.8	2.82	1.82	3.83	2.06	14.7	> 50	> 50	2.26	0.7	> 50	26.4	> 50	3.9	Neutralization IC50, H1-BJ95 [21]: 10.6 µg/mL
